Results on 3 molecules are retold here after patent US20050287136A1 (Amgen, published 2005).

The target in test [1] is T1, CTLA-4-IgG1 fusion protein (OM-CTLA4-IgG1, made in-house) (human).
T1 construct: covalent dimer through cysteine 120 of CTLA-4; The marks for signal peptide (underline) and CTLA4 domain are lost in the text; also called CTLA-4-Ig fusion protein; human CTLA4-IgG
As to the kind of experiment: BIAcore, immobilised CTLA-4-Ig fusion, 457.2 RU. In general terms: Surface plasmon resonance follows binding to a sensor surface in real time, without labels.

The target in test [2] is T1, CTLA-4-IgG1 fusion protein …. Briefly: BIAcore, immobilised CTLA-4-Ig fusion, 878.7 RU.
Test [3] concerns the target T2, CTLA-4-Ig(G4) (Repligen, Inc.) (UniProt P16410 37-161, limits assumed). Briefly: competition ELISA, antibody with CTLA-4-Ig(G4) 0.3 nM on coated B7.2-Ig(G1).
The target of test [4] is T2, CTLA-4-Ig(G4) (Repligen, Inc.). Briefly: competition ELISA, antibody with CTLA-4-Ig(G4) 0.3 nM on coated B7.1-Ig(G1). (In general: In an ELISA, binding on a coated surface is turned into a signal by an enzyme label.)
Test [5] has as its target T1, CTLA-4-IgG1 fusion protein …. As to the kind of experiment: BIAcore, immobilised CTLA-4-Ig fusion, 504.5 RU.
The target is the same in test [6]. As to the kind of experiment: selectivity ELISA, coated CTLA-4/Ig against CD44/Ig, antibody 1 ug/ml.
Test [7] has the same target. Briefly: selectivity ELISA, coated CTLA-4/Ig against CD28/Ig, antibody 1 ug/ml.
Test [8] has the same target. As to the kind of experiment: selectivity ELISA, coated CTLA-4/Ig against B7.2/Ig, antibody 1 ug/ml.
The target is the same in test [9]. As to the kind of experiment: BIAcore, immobilised CTLA-4-Ig fusion, 397.8 RU.
The target is the same in test [10]. As to the kind of experiment: selectivity ELISA, coated CTLA-4/Ig against CD28/Ig.
In test [11] the target is T2, CTLA-4-Ig(G4) (Repligen, Inc.). As to the kind of experiment: competition ELISA (separate experiment), antibody with CTLA-4-Ig(G4) 0.3 nM on coated B7.1-Ig(G1).
Test [12] deals with T1, CTLA-4-IgG1 fusion protein …. Briefly: selectivity ELISA, coated CTLA-4/Ig against hIgG.
Test [13] deals with T2, CTLA-4-Ig(G4) (Repligen, Inc.). Briefly: competition ELISA (separate experiment), antibody with CTLA-4-Ig(G4) 0.3 nM on coated B7.2-Ig(G1).
In test [14] the target is T1, CTLA-4-IgG1 fusion protein …. Briefly: selectivity ELISA, coated CTLA-4/Ig against B7.2/Ig.

A value given as a limit tells only on which side of the number the result lay.

T1 sequence (chain, as listed by the source): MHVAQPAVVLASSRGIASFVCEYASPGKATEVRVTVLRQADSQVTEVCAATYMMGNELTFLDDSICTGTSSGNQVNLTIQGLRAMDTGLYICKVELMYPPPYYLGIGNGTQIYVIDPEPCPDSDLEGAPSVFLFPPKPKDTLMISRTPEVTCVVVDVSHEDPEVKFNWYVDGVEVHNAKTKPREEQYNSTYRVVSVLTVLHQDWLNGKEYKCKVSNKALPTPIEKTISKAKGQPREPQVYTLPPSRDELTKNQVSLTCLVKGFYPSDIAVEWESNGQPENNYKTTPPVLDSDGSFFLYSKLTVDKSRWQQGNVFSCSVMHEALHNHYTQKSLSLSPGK
T2 sequence (P16410 37-161 limits assumed): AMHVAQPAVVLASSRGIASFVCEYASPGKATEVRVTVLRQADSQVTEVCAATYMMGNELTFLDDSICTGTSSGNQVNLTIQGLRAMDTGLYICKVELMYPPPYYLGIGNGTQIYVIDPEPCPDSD

B1: 3.1.1 (antibody, human IgG2, V domains shown)
VH: QVQLVESGGGVVQPGRSLRLSCAASGFTFSSYGMHWVRQAPGKGLEWVAVIWYDGSNKYYADSVKGRFTISRDNSKNTLYLQMNSLRAEDTAVYYCARGARIITPCMDVWGQGTTVTVSS
VL: DIQMTQSPSSLSASVGDRVTITCRASQSINTYLIWYQQKPGKAPNFLISATSILQSGVPSRFRGSGSGTNFTLTINSLHPEDFATYYCQQSYSTPFTFGPGTKVDIK
modifications: chain 1 pos 1: pyroglutamate from Gln (FIG. 9: NH2-Blocked, pQ), written Q
notes: Fully human IgG2 kappa; VH DP-50, VK 012; also called CT3.1.1
As usually defined, the Kd is the concentration at which binding is half-saturated. Higher therefore signals weaker binding. Usually koff stands for a measure of how fast the partners let go of each other. The low end stands for a long-lived complex, the high end for a short-lived complex. Usually kon stands for the second-order rate constant of association. One may read the IC50 as the concentration that inhibits the measured activity by half. Take B1: the Ka in [1] turned out to be 4.4e+09 M⁻¹; in [2], 1.07e+10 M⁻¹; in test [5], 5.5e+09 M⁻¹; in test [9], 4.4e+09 M⁻¹. Also, the Kd was found to be 0.227 nM in test [1], 0.093 nM in test [2], 0.182 nM in test [5] and 0.228 nM in [9]. Also, the koff in test [1] is 0.000165 s⁻¹; in [2] it was 9.6e-05 s⁻¹; in test [5] it was 0.000172 s⁻¹; in test [9], 0.000207 s⁻¹. For the same molecule, the kon in test [1] amounted to 730000 M⁻¹ s⁻¹; in [2], 1.04e+06 M⁻¹ s⁻¹; in test [5], 950000 M⁻¹ s⁻¹; in [9] it was 910000 M⁻¹ s⁻¹. The values for the IC50 in test [3] and in [4] were 0.45 nM and 0.63 nM, respectively. Besides, in [6], the “selectivity ratio CTLA4/CD44” value is > 500 :1. In addition, the “selectivity ratio CTLA4/CD28” value in test [7] is > 500 :1. The “selectivity ratio CTLA4/B7.2” value in test [8] is > 500 :1.

B2: 4.10.2 (antibody, human IgG2, V domains shown)
VH: QVQLVESGGGVVQPGRSLRLSCVASGFIFSSHGIHWVRQAPGKGLEWVAVIWYDGRNKDYADSVKGRFTISRDNSKNTLYLQMNSLRAEDTAVYYCARVAPLGPLDYWGQGTLVTVSS
VL: EFVLTQSPGTLSLSPGERATLSCRASQSISSNFLAWYQQKPGQAPRLLIYRPSSRATGIPDSFSGSGSGTDFTLTISRLEPEDFALYYCQQYGTSPFTFGPGTKVDIK
modifications: chain 1 pos 1: pyroglutamate from Gln (FIG. 9: NH2-Blocked, pQ), written Q
notes: Fully human IgG2 kappa; VH DP-50, VK A27; also called CT4.10.2
Consider B2, for which, in test [1], the Ka amounted to 1.4e+09 M⁻¹, the Kd was 0.721 nM, the off-rate (koff) was found to be 0.000505 s⁻¹ and the kon stood at 700000 M⁻¹ s⁻¹. In [2], this molecule returned a Ka of 3.9e+09 M⁻¹, a Kd of 0.254 nM, a koff of 0.000253 s⁻¹ and a kon of 1e+06 M⁻¹ s⁻¹. This molecule displayed an IC50 in test [3] of 1.5 nM. The molecule also returned an IC50 in [4] of 3.39 nM. In [5], this molecule gave a Ka of 2.2e+09 M⁻¹, a Kd of 0.455 nM, a koff of 0.00043 s⁻¹ and a kon of 940000 M⁻¹ s⁻¹.

B3: 11.2.1 (antibody, human IgG2, kappa, V domains shown)
VH: QVQLVESGGGVVQPGRSLRLSCAASGFTFSSYGMHWVRQAPGKGLEWVAVIWYDGSNKYYADSVKGRFTISRDNSKNTLYLQMNSLRAEDTAVYYCARDPRGATLYYYYYGMDVWGQGTTVTVSS
VL: DIQMTQSPSSLSASVGDRVTITCRASQSINSYLDWYQQKPGKAPKLLIYAASSLQSGVPSRFSGSGSGTDFTLTISSLQPEDFATYYCQQYYSTPFTFGPGTKVEIKR
notes: also called CT11.2.1
In the case of B3, the “selectivity ratio CTLA4/CD28” value in test [10] was > 500 :1. For the same molecule, the IC50 is 0.81 nM in [11] and 0.56 nM in test [13]. Further, in [12], the “selectivity ratio CTLA4/hIgG” value is > 500 :1. Also, the “selectivity ratio CTLA4/B7.2” value in [14] was > 500 :1.
